Measured values: paper PMC11969024 (2025)

B1: peptide HD2 (from tick evasin EVA4) / CCL19 (biotinylated, synthetic) (parent complex)
chain 1: EEDDYTAYAPLTCYFT
chain 2: GTNDAEDCCLSVTQKPIPGYIVRNFHYLLIKDGCRVPAVVFTTLRGRQLCAPPDQPWVERIIQRLQRTSAKMKRRSS

Variants of: B1
In the case of chain 1 D3F, the enrichment is reported as -3.58 log2 (difference from the parental peptide).
For chain 1 D3G, the enrichment was -6.43 log2 (difference from the parental peptide).
In the case of chain 1 D3Y, the enrichment is reported as -0.734 log2 (difference from the parental peptide).
For chain 1 D3W, the enrichment was 0.0843 log2 (difference from the parental peptide).
chain 1 D3S was tested, and the enrichment was -8.53 log2 (difference from the parental peptide).
In the case of chain 1 D3N, the enrichment is reported as -6.84 log2 (difference from the parental peptide).
In the case of chain 1 D3E, the enrichment is reported as -0.508 log2 (difference from the parental peptide).
For chain 1 D3L, the enrichment was -2.95 log2 (difference from the parental peptide).
For chain 1 D3V, the enrichment was -8.31 log2 (difference from the parental peptide).
chain 1 E2T was tested, and the enrichment was -1.16 log2 (difference from the parental peptide).
chain 1 E2M was tested, and the enrichment was 0.392 log2 (difference from the parental peptide).
With chain 1 E2D the enrichment was 2.11 log2 (difference from the parental peptide).
chain 1 E2R was tested, and the enrichment was -2.64 log2 (difference from the parental peptide).
With chain 1 E2A the enrichment was -0.338 log2 (difference from the parental peptide).
For chain 1 E2S, the enrichment was -0.165 log2 (difference from the parental peptide).
With chain 1 E2L the enrichment was 0.769 log2 (difference from the parental peptide).
chain 1 E2N was tested, and the enrichment was -1.08 log2 (difference from the parental peptide).
In the case of chain 1 Y8L, the enrichment is reported as -8.33 log2 (difference from the parental peptide).
With chain 1 Y8V the enrichment was -4.57 log2 (difference from the parental peptide).
In the case of chain 1 Y8M, the enrichment is reported as -4.14 log2 (difference from the parental peptide).
With chain 1 Y8S the enrichment was -6.72 log2 (difference from the parental peptide).
In the case of chain 1 Y8H, the enrichment is reported as -6.54 log2 (difference from the parental peptide).
For chain 1 Y5W, the enrichment was 3.19 log2 (difference from the parental peptide).
chain 1 Y5S was tested, and the enrichment was -6.07 log2 (difference from the parental peptide).
For chain 1 Y5I, the enrichment was -6.6 log2 (difference from the parental peptide).
In the case of chain 1 Y5T, the enrichment is reported as -5.05 log2 (difference from the parental peptide).
For chain 1 Y5H, the enrichment was -6.3 log2 (difference from the parental peptide).
chain 1 Y5N was tested, and the enrichment was -6.68 log2 (difference from the parental peptide).
chain 1 Y5C was tested, and the enrichment was -4.33 log2 (difference from the parental peptide).
With chain 1 Y5D the enrichment was -5.02 log2 (difference from the parental peptide).
In the case of chain 1 Y5M, the enrichment is reported as -5.03 log2 (difference from the parental peptide).
With chain 1 Y5F the enrichment was -2.5 log2 (difference from the parental peptide).
With chain 1 P10F the enrichment was -4.06 log2 (difference from the parental peptide).
With chain 1 P10Y the enrichment was -6.54 log2 (difference from the parental peptide).
chain 1 P10T was tested, and the enrichment was -5.84 log2 (difference from the parental peptide).
In the case of chain 1 P10L, the enrichment is reported as -6.31 log2 (difference from the parental peptide).
With chain 1 P10M the enrichment was -7.47 log2 (difference from the parental peptide).
For chain 1 P10W, the enrichment was -2.06 log2 (difference from the parental peptide).
In the case of chain 1 P10V, the enrichment is reported as -9.35 log2 (difference from the parental peptide).
With chain 1 P10G the enrichment was -5.73 log2 (difference from the parental peptide).
In the case of chain 1 C13S, the enrichment is reported as -6.7 log2 (difference from the parental peptide).
With chain 1 C13P the enrichment was -6.25 log2 (difference from the parental peptide).
With chain 1 C13D the enrichment was -7.13 log2 (difference from the parental peptide).
With chain 1 F15M the enrichment was -6.46 log2 (difference from the parental peptide).
chain 1 F15T was tested, and the enrichment was -3.97 log2 (difference from the parental peptide).
chain 1 F15C was tested, and the enrichment was -6.81 log2 (difference from the parental peptide).
chain 1 F15H was tested, and the enrichment was -3.96 log2 (difference from the parental peptide).
For chain 1 F15Y, the enrichment was -1.04 log2 (difference from the parental peptide).
For chain 1 F15S, the enrichment was -6.94 log2 (difference from the parental peptide).
For chain 1 F15W, the enrichment was -0.785 log2 (difference from the parental peptide).
With chain 1 F15V the enrichment was -3.63 log2 (difference from the parental peptide).
With chain 1 F15E the enrichment was -4.2 log2 (difference from the parental peptide).
In the case of chain 1 F15Q, the enrichment is reported as -4.06 log2 (difference from the parental peptide).
chain 1 F15P was tested, and the enrichment was -6.33 log2 (difference from the parental peptide).
chain 1 F15L was tested, and the enrichment was -2.93 log2 (difference from the parental peptide).
chain 1 L11H was tested, and the enrichment was -5.81 log2 (difference from the parental peptide).
In the case of chain 1 L11Q, the enrichment is reported as -1.91 log2 (difference from the parental peptide).
For chain 1 L11W, the enrichment was -0.0314 log2 (difference from the parental peptide).
With chain 1 L11K the enrichment was -3.64 log2 (difference from the parental peptide).
For chain 1 L11M, the enrichment was -1.53 log2 (difference from the parental peptide).
With chain 1 L11P the enrichment was -5.49 log2 (difference from the parental peptide).
In the case of chain 1 L11S, the enrichment is reported as -5.08 log2 (difference from the parental peptide).
In the case of chain 1 L11C, the enrichment is reported as -4.39 log2 (difference from the parental peptide).
For chain 1 L11T, the enrichment was -3.41 log2 (difference from the parental peptide).
With chain 1 E1A the enrichment was -5.3 log2 (difference from the parental peptide).
With chain 1 E1I the enrichment was -1.84 log2 (difference from the parental peptide).
With chain 1 E1V the enrichment was -1.37 log2 (difference from the parental peptide).
In the case of chain 1 E1N, the enrichment is reported as -2.91 log2 (difference from the parental peptide).
For chain 1 E1T, the enrichment was -5.43 log2 (difference from the parental peptide).
For chain 1 E1H, the enrichment was -5.95 log2 (difference from the parental peptide).
In the case of chain 1 E1Y, the enrichment is reported as 1.7 log2 (difference from the parental peptide).
With chain 1 E1G the enrichment was -6.21 log2 (difference from the parental peptide).
For chain 1 E1M, the enrichment was -5.78 log2 (difference from the parental peptide).
chain 1 E1P was tested, and the enrichment was -6.51 log2 (difference from the parental peptide).
chain 1 E1F was tested, and the enrichment was -0.113 log2 (difference from the parental peptide).
For chain 1 E1L, the enrichment was -2.92 log2 (difference from the parental peptide).
For chain 1 E1S, the enrichment was -6.42 log2 (difference from the parental peptide).
chain 1 A9I was tested, and the enrichment was -3.88 log2 (difference from the parental peptide).
In the case of chain 1 A9L, the enrichment is reported as -1.81 log2 (difference from the parental peptide).
chain 1 A9E was tested, and the enrichment was -4.22 log2 (difference from the parental peptide).
chain 1 A9Y was tested, and the enrichment was 0.673 log2 (difference from the parental peptide).
With chain 1 A9V the enrichment was -6.04 log2 (difference from the parental peptide).
For chain 1 A9C, the enrichment was -8.06 log2 (difference from the parental peptide).
chain 1 A9T was tested, and the enrichment was -6.55 log2 (difference from the parental peptide).
In the case of chain 1 A9R, the enrichment is reported as -5.91 log2 (difference from the parental peptide).
For chain 1 A9M, the enrichment was -0.965 log2 (difference from the parental peptide).
chain 1 A9F was tested, and the enrichment was -2.77 log2 (difference from the parental peptide).
In the case of chain 1 T6G, the enrichment is reported as 1.65 log2 (difference from the parental peptide).
chain 1 T6H was tested, and the enrichment was -2.26 log2 (difference from the parental peptide).
With chain 1 T6A the enrichment was -0.907 log2 (difference from the parental peptide).
In the case of chain 1 T6W, the enrichment is reported as 7.55 log2 (difference from the parental peptide).
In the case of chain 1 T6E, the enrichment is reported as 1.9 log2 (difference from the parental peptide).
For chain 1 T6D, the enrichment was 2.57 log2 (difference from the parental peptide).
For chain 1 T6R, the enrichment was -3.39 log2 (difference from the parental peptide).
In the case of chain 1 T6K, the enrichment is reported as -1.49 log2 (difference from the parental peptide).
With chain 1 T6S the enrichment was 0.379 log2 (difference from the parental peptide).
For chain 1 T6Y, the enrichment was 4.88 log2 (difference from the parental peptide).
In the case of chain 1 T6I, the enrichment is reported as -2.29 log2 (difference from the parental peptide).
chain 1 T6C was tested, and the enrichment was -7.51 log2 (difference from the parental peptide).
In the case of chain 1 T6N, the enrichment is reported as -0.836 log2 (difference from the parental peptide).
chain 1 T6L was tested, and the enrichment was 1.3 log2 (difference from the parental peptide).
chain 1 T16K was tested, and the enrichment was -6.25 log2 (difference from the parental peptide).
For chain 1 T16C, the enrichment was -6.65 log2 (difference from the parental peptide).
For chain 1 T16Y, the enrichment was -0.692 log2 (difference from the parental peptide).
With chain 1 T16N the enrichment was -5.68 log2 (difference from the parental peptide).
With chain 1 T16Q the enrichment was -5.8 log2 (difference from the parental peptide).
chain 1 T16R was tested, and the enrichment was -6.57 log2 (difference from the parental peptide).
In the case of chain 1 T16F, the enrichment is reported as -0.403 log2 (difference from the parental peptide).
For chain 1 T16L, the enrichment was 0.688 log2 (difference from the parental peptide).
chain 1 T16E was tested, and the enrichment was -1.61 log2 (difference from the parental peptide).
For chain 1 T16V, the enrichment was 0.157 log2 (difference from the parental peptide).
For chain 1 T16W, the enrichment was 0.831 log2 (difference from the parental peptide).
In the case of chain 1 T16D, the enrichment is reported as -1.5 log2 (difference from the parental peptide).
chain 1 T16S was tested, and the enrichment was -1.7 log2 (difference from the parental peptide).
In the case of chain 1 T16H, the enrichment is reported as -3.46 log2 (difference from the parental peptide).
In the case of chain 1 Y14F, the enrichment is reported as -2.54 log2 (difference from the parental peptide).
In the case of chain 1 Y14R, the enrichment is reported as -7.07 log2 (difference from the parental peptide).
In the case of chain 1 Y14V, the enrichment is reported as -7.09 log2 (difference from the parental peptide).
chain 1 Y14A was tested, and the enrichment was -9.01 log2 (difference from the parental peptide).
For chain 1 Y14G, the enrichment was -9.47 log2 (difference from the parental peptide).
For chain 1 Y14P, the enrichment was -7.82 log2 (difference from the parental peptide).
With chain 1 A7M the enrichment was 2.5 log2 (difference from the parental peptide).
With chain 1 A7D the enrichment was 2 log2 (difference from the parental peptide).
chain 1 A7I was tested, and the enrichment was 1.38 log2 (difference from the parental peptide).
In the case of chain 1 A7Y, the enrichment is reported as 4.06 log2 (difference from the parental peptide).
For chain 1 A7E, the enrichment was -0.397 log2 (difference from the parental peptide).
With chain 1 A7L the enrichment was 1.76 log2 (difference from the parental peptide).
With chain 1 A7S the enrichment was -2.1 log2 (difference from the parental peptide).
For chain 1 A7H, the enrichment was -0.764 log2 (difference from the parental peptide).
In the case of chain 1 A7N, the enrichment is reported as -1.33 log2 (difference from the parental peptide).
chain 1 A7V was tested, and the enrichment was 0.465 log2 (difference from the parental peptide).
In the case of chain 1 A7K, the enrichment is reported as -3.29 log2 (difference from the parental peptide).
chain 1 T12C was tested, and the enrichment was -7.61 log2 (difference from the parental peptide).
chain 1 T12L was tested, and the enrichment was 2.69 log2 (difference from the parental peptide).
In the case of chain 1 T12M, the enrichment is reported as 1.53 log2 (difference from the parental peptide).
In the case of chain 1 T12I, the enrichment is reported as 5.78 log2 (difference from the parental peptide).
chain 1 T12P was tested, and the enrichment was -4.32 log2 (difference from the parental peptide).
chain 1 T12A was tested, and the enrichment was -4.86 log2 (difference from the parental peptide).
In the case of chain 1 T12Y, the enrichment is reported as 3.73 log2 (difference from the parental peptide).
For chain 1 T12E, the enrichment was -6.93 log2 (difference from the parental peptide).
With chain 1 T12F the enrichment was 3.41 log2 (difference from the parental peptide).
chain 1 T12H was tested, and the enrichment was 0.389 log2 (difference from the parental peptide).
In the case of chain 1 D4W, the enrichment is reported as 0.498 log2 (difference from the parental peptide).
In the case of chain 1 D4Y, the enrichment is reported as 0.0224 log2 (difference from the parental peptide).
In the case of chain 1 D4S, the enrichment is reported as -6.25 log2 (difference from the parental peptide).
chain 1 D4M was tested, and the enrichment was -3.6 log2 (difference from the parental peptide).
For chain 1 D4F, the enrichment was -1.53 log2 (difference from the parental peptide).
For chain 1 D4V, the enrichment was -4.18 log2 (difference from the parental peptide).
chain 1 D4Q was tested, and the enrichment was -5.46 log2 (difference from the parental peptide).
For chain 1 D4I, the enrichment was -2.59 log2 (difference from the parental peptide).
